Source: PMC9599836, “Comparative Analysis of Mesophilic YqfB-Type Amidohydrolases” (Biomolecules, 2022)

What was measured:
Experiment in all cases: purified protein
Settings in all cases: 20 mM Tris-HCl, pH 7.5, 22 °C, 0.025-0.2 mM ac4C
purified protein [1] = substrate: CC(=O)Nc1ccn([C@@H]2O[C@H](CO)[C@@H](O)[C@H]2O)c(=O)n1; format: biochemical, Shewanella loihica
purified protein [2] = substrate: CC(=O)Nc1ccn([C@@H]2O[C@H](CO)[C@@H](O)[C@H]2O)c(=O)n1; format: biochemical, Buttiauxella agrestis
purified protein [3] = substrate: CC(=O)Nc1ccn([C@@H]2O[C@H](CO)[C@@H](O)[C@H]2O)c(=O)n1

B1: SloYqfB (Shewanella loihica PV-4) (protein)
chain: MTPLTYDGKITFFERFEADILSGAKTITLRDESESHFRVGDRLSVSTFETGRHFCDIQVVRVEELAFEALNSRHAVQENMTLEQLKAVITEIYGEIDTLYLIEYRLL
notes: pLATE31 expression vector, E. coli HMS174 ΔpyrF ΔyqfB host
Purified protein [1]
  Km: (1 ± 0.2) × 10^-4 M
  kcat: 441 ± 37 s⁻¹
  kcat/Km: 4.3e+06 ± 500000 M⁻¹ s⁻¹

B2: BagYqfB (Buttiauxella agrestis ATCC 33320) (protein)
chain: MNDITFFQRFESDIVAGRKTITLRDVSESHFIPGQQLRVGRYEDDVYFCTIEVVSVTPVALEKLTDEHARQENMTLPELKEVIGEIYPGLTELYAIVFRLLTKSDKRVL
notes: 109 a.a; pLATE31 expression vector, E. coli HMS174 ΔpyrF ΔyqfB host
Purified protein [2]
  Km: (3.6 ± 0.8) × 10^-5 M
  kcat: 154 ± 11 s⁻¹
  kcat/Km: 4.3e+06 ± 700000 M⁻¹ s⁻¹

B3: KpnYqfB (Klebsiella pneumoniae subsp. pneumoniae MGH 78578) (protein)
chain: MQANDITFFQRFQDDILAGRKTITIRDAAESHFKPGDVLRVGRYEDDGYFCTIAVTATSTVTLDTLTEQHAQQENMTLGQLRQVISDIYPGESQFYVIEFKTL
Purified protein [3]
  Km: (4.6 ± 0.8) × 10^-5 M
  kcat: 216 ± 2 s⁻¹
  kcat/Km: 4.8e+06 ± 800000 M⁻¹ s⁻¹
